# T1: AMH-specific type II receptor, AMHR2 (UniProt Q16671 18-573, limits assumed)
# T1 sequence (looked up): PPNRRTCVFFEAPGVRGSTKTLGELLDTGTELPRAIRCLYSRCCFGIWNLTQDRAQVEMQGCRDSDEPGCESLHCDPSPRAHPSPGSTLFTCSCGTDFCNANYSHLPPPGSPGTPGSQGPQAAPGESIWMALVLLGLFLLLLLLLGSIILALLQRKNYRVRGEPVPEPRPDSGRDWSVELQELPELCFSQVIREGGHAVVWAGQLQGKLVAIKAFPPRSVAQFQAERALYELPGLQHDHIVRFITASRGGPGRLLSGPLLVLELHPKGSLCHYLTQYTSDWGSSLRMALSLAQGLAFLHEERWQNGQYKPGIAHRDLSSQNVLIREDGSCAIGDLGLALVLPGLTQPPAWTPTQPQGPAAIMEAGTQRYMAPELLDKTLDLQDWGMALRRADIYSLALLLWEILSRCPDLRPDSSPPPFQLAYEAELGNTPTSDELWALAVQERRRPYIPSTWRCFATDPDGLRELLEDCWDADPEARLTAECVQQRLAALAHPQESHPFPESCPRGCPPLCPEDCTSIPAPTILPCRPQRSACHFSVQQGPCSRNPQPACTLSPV
# Biological target: T1, AMH-specific type II receptor, AMHR2
# Assay: cell-based or functional assay
Maximal response relative to wild-type (%),AMH activity relative to wild type (%),EC50 in COV434 BRE-Luc assay,Potency relative to ‘wild-type’,Binder
~5%,–,–,–,hAMH mutant A546M (ligand) chain 1: HHHHHHPAVGTSGLIFREDLDWPPGSPQEPLCLVALGGDSNGSSSPLRVVGALSAYEQAFLGAVQRARWGPRDLATFGVCNTGDRQAALPSLRRLGAWLQDPGGQRLVVLHLEEVTWEPTPSLRFQEPPPGGAGPPELALLVLYPGPGPEVTVTRAGLPGAQSLCPSRDTRYLVLAVDRPAGAWRGSGLALTLQPRGEDSRLSTARLQALLFGDDHRCFTRMTPALLLLPRSEPAPLPAHGQLDTVPFPPPRPSAELEESPPSADPFLETLTRLVRALRVPPARASAPRLALDPDALAGFPQGLVNLSDPAALERLLDGEEPLLLLLRPTAATTGDPAPLHDPTSAPWATALARRVAAELQAAAAELRSLPGLPPATAPLLARLLALCPGGPGGLGDPLRALLLLKALQGLRVEWRGRDPRGPGISSRKKR chain 2: SVSSSAGATAADGPCALRELSVDLRAERSVLIPETYQANNCQGVCGWPQSDRNPRYGNHVVLLLKMQARGAALARPPCCVPTAYAGKLLISLSEERISMHHVPNMVATECGCR
–,100%,~6 ng/mL,–,hAMH+SCUT+RSA H548K mutant (ligand) chain 1: HHHHHHPAVGTSGLIFREDLDWPPGSPQEPLCLVALGGDSNGSSSPLRVVGALSAYEQAFLGAVQRARWGPRDLATFGVCNTGDRQAALPSLRRLGAWLQDPGGQRLVVLHLEEVTWEPTPSLRFQEPPPGGAGPPELALLVLYPGPGPEVTVTRAGLPGAQSLCPSRDTRYLVLAVDRPAGAWRGSGLALTLQPRGEDSRLSTARLQALLFGDDHRCFTRMTPALLLLPRSEPAPLPAHGQLDTVPFPPPRPSAELEESPPSADPFLETLTRLVRALRVPPARASAPRLALDPDALAGFPQGLVNLSDPAALERLLDGEEPLLLLLRPTAATTGDPAPLHDPTSAPWATALARRVAAELQAAAAELRSLPGLPPATAPLLARLLALCPGGPGGLGDPLRALLLLKALQGLRVEWRGRDPRGPGISSRKKR chain 2: SVSSSAGATAADGPCALRELSVDLRAERSVLIPETYQANNCQGVCGWPQSDRNPRYGNHVVLLLKMQARGAALARPPCCVPTAYAGKLLISLSEERISAHKVPNMVATECGCR
–,250%,~2.8 ng/mL,~2 fold more potent,hAMH+SCUT+RSA G533A mutant (ligand) chain 1: HHHHHHPAVGTSGLIFREDLDWPPGSPQEPLCLVALGGDSNGSSSPLRVVGALSAYEQAFLGAVQRARWGPRDLATFGVCNTGDRQAALPSLRRLGAWLQDPGGQRLVVLHLEEVTWEPTPSLRFQEPPPGGAGPPELALLVLYPGPGPEVTVTRAGLPGAQSLCPSRDTRYLVLAVDRPAGAWRGSGLALTLQPRGEDSRLSTARLQALLFGDDHRCFTRMTPALLLLPRSEPAPLPAHGQLDTVPFPPPRPSAELEESPPSADPFLETLTRLVRALRVPPARASAPRLALDPDALAGFPQGLVNLSDPAALERLLDGEEPLLLLLRPTAATTGDPAPLHDPTSAPWATALARRVAAELQAAAAELRSLPGLPPATAPLLARLLALCPGGPGGLGDPLRALLLLKALQGLRVEWRGRDPRGPGISSRKKR chain 2: SVSSSAGATAADGPCALRELSVDLRAERSVLIPETYQANNCQGVCGWPQSDRNPRYGNHVVLLLKMQARGAALARPPCCVPTAYAAKLLISLSEERISAHHVPNMVATECGCR

# — patent publication US20220411477A1 (MONASH UNIVERSITY, published 2022)
